{"source": "patent US10927188B2", "about": "“Method for producing short-chain peptide-immobilized carrier, and short-chain peptide-immobilized carrier” (FUJIFILM Corporation, priority 2015, dated 2021)", "experiment": "Percentage content of secondary structure by CD (circular dichroism) spectrum", "format": "physicochemical", "conditions": "for Percentage content of secondary structure In HEPES: free peptide in HEPES buffer solution (10 mM HEPES-HCl, 150 mM NaCl, pH 7.4, 25° C.); for Percentage content of secondary structure In MeOH: free peptide in methanol (purity 99.5% by mass)", "note": "Where no end group is shown, it is not given here."}
{"substance": "KKKEQQNAFYEILHKKK (SIMILAR (4)..(14) SEQ ID No.2 EQQNAFYEILH; SIMILAR (4)..(10) SEQ ID No.1 EQQNAFY) [Short-chain peptide 3]", "values": [{"measurement": "Percentage content of secondary structure In HEPES", "result": 33, "unit": "%"}, {"measurement": "Percentage content of secondary structure In MeOH", "result": 100, "unit": "%"}]}
{"substance": "KKKKEQQNAFYEILHKKKK (SIMILAR (5)..(11) SEQ ID No.1 EQQNAFY; SIMILAR (5)..(15) SEQ ID No.2 EQQNAFYEILH) [Short-chain peptide 4]", "values": [{"measurement": "Percentage content of secondary structure In HEPES", "result": 32, "unit": "%"}, {"measurement": "Percentage content of secondary structure In MeOH", "result": 100, "unit": "%"}]}
{"substance": "KKRKEQQNAFYEILHKRRKK [Short-chain peptide 7]", "values": [{"measurement": "Percentage content of secondary structure In HEPES", "result": 35, "unit": "%"}, {"measurement": "Percentage content of secondary structure In MeOH", "result": 100, "unit": "%"}]}
{"substance": "KKRREQQNAFYEILHKRRKK [Short-chain peptide 6]", "values": [{"measurement": "Percentage content of secondary structure In HEPES", "result": 35, "unit": "%"}, {"measurement": "Percentage content of secondary structure In MeOH", "result": 100, "unit": "%"}]}
{"substance": "KKRKEQQKKFYKKLHK [Short-chain peptide 8]", "values": [{"measurement": "Percentage content of secondary structure In HEPES", "result": 16, "unit": "%"}, {"measurement": "Percentage content of secondary structure In MeOH", "result": 88, "unit": "%"}]}
{"substance": "KKKKKEQQNAFYEILH (SIMILAR (6)..(12) SEQ ID No.1 EQQNAFY; SIMILAR (6)..(16) SEQ ID No.2 EQQNAFYEILH) [Short-chain peptide 2]", "values": [{"measurement": "Percentage content of secondary structure In HEPES", "result": 30, "unit": "%"}, {"measurement": "Percentage content of secondary structure In MeOH", "result": 84, "unit": "%"}]}
{"substance": "Ac-KAAKEQQKAFYKILH [Short-chain peptide 5]", "values": [{"measurement": "Percentage content of secondary structure In HEPES", "result": 36, "unit": "%"}, {"measurement": "Percentage content of secondary structure In MeOH", "result": 92, "unit": "%"}]}
